Key:
p60^v-src = details: membrane versus cytosolic fractions; cited from earlier work
[1] = compared with myristic acid; cited from earlier work
[2] = substrate: CCCCCCCCCCCCCC(=O)SCCNC(=O)CCNC(=O)[C@H](O)C(C)(C)COP(=O)(O)OP(=O)(O)OC[C@H]1O[C@@H](n2cnc3c(N)ncnc32)[C@H](O)[C@@H]1OP(=O)(O)O; test: cells, lysate or membranes named; details: other: fatty acyl-CoA substrate varied, 60 μM GNAAAARR
[3] = substrate: CCCOCCCCCCCCCC(=O)SCCNC(=O)CCNC(=O)[C@H](O)C(C)(C)COP(=O)(O)OP(=O)(O)OC[C@H]1O[C@@H](n2cnc3c(N)ncnc32)[C@H](O)[C@@H]1OP(=O)(O)O; test: coupled in vitro assay for NMT activity, 45 kDa E. coli NMT; type: biochemical, S. cerevisiae; details: other: fatty acyl-CoA substrate varied, 60 μM GNAAAARR
Description: (§1) In vitro assay system for NMT activity. To assess the peptide and acyl-CoA substrate specificities of E. coli-derived S. cerevisiae NMT, crude lysates or partially purified enzyme preparations were added to a coupled in vitro assay system [Towler and Glaser, Proc. Natl. Acad. Sci. USA 83, 2812-2816 (1986)]. The first step of this assay involves enzymatic conversion of radiolabeled fatty acids to their CoA thioesters by Pseudomonas acyl-CoA ligase. This ligase is largely nonspecific for fatty acid substrates [Shimizu et al., Anal. Biochem. 107, 193-198 (1980)]. Octapeptide substrates and NMT were then added to produce acylpeptides. Acylpeptides were purified from the reaction mixture by trichloroacetic acid/methanol precipitation and C18 reverse phase HPLC using a linear gradient of acetonitrile in water [Towler and Glaser, Proc. Natl. Acad. Sci. USA 83, 2812-2816 (1986)].
(§2) To obtain a homogenous preparation of the enzyme, E. coli-produced NMT was further purified by Mono S fast protein liquid chromatography (FPLC).
(§3) The peptide Km and Vmax values shown in the above Table I are averages obtained from 4- or 5-point Lineweaver-Burke plots. These plots were produced using data generated in at least three independent in vitro NMT assays. Varying concentrations of peptides were assayed with 15 μM myristate to determine peptide Km and Vmax values. […] Yeast NMT was from a 570 fold purified preparation [Towler et al., Proc. Natl. Acad. Sci. USA 84, 2708-2712 (1987)]. Synthetic peptide substrates are represented by their conventional one letter amino acid code. […] ND=not determined.

[4] = substrate: CCCCCCCCCCCCCCCC(=O)SCCNC(=O)CCNC(=O)[C@H](O)C(C)(C)COP(=O)(O)OP(=O)(O)OC[C@H]1O[C@@H](n2cnc3c(N)ncnc32)[C@H](O)[C@@H]1OP(=O)(O)O; test: as above; type: biochemical, S. cerevisiae; details: other: fatty acyl-CoA substrate varied, 60 μM GNAAAARR
Description: as §1, §2, §3

[5] = substrate: C[C@H](NC(=O)[C@H](C)NC(=O)[C@H](CC(N)=O)NC(=O)CN)C(=O)N[C@@H](CO)C(=O)N[C@@H](C)C(=O)N[C@@H](CCCNC(=N)N)C(=O)N[C@@H](CCCNC(=N)N)C(N)=O; test: as above; type: biochemical, S. cerevisiae; details: other: peptide substrate varied, 15 μM myristate
Description: as §1, §2, §3

[6] = substrate: C[C@H](NC(=O)[C@H](C)NC(=O)[C@H](CC(N)=O)NC(=O)CN)C(=O)N[C@@H](CO)C(=O)N[C@@H](C)C(=O)N[C@@H](CCCNC(=N)N)C(=O)N[C@@H](CCCNC(=N)N)C(N)=O; test: coupled in vitro assay for NMT activity, Total E. coli NMT; type: biochemical, S. cerevisiae; details: other: peptide substrate varied, 15 μM myristate
Description: as §1
as §3, with “(1987)].” for “(1987)]. Synthetic peptide substrates are represented by their conventional one letter amino acid code.”

[7] = substrate: C[C@H](NC(=O)[C@H](C)NC(=O)[C@H](C)NC(=O)[C@H](CC(N)=O)NC(=O)CN)C(=O)N[C@@H](C)C(=O)N[C@@H](CCCNC(=N)N)C(=O)N[C@@H](CCCNC(=N)N)C(N)=O; test: as above; type: biochemical, S. cerevisiae; details: other: peptide substrate varied, 15 μM myristate
Description: as §1
as §3, with “(1987)].” for “(1987)]. Synthetic peptide substrates are represented by their conventional one letter amino acid code.”

Molecule: CCCOCCCCCCCCCC(=O)O [10-(Propoxy)decanoic acid]
- effect on p60v-src distribution when incorporated in vivo (p60^v-src): significant redistribution of the protein from membrane to cytosolic fractions
- hydrophobicity [1]: reduced hydrophobicity (comparable to decanoic acid)

B1: 45 kDa E. coli NMT (NMT missing the NH2-terminal 39 residues) (Saccharomyces cerevisiae S288C) (protein)
chain: FWRTQPVKDFDEKVVEEGPIDKPKTPEDISDKPLPLLSSFEWCSIDVDNKKQLEDVFVLLNENYVEDRDAGFRFNYTKEFFNWALKSPGWKKDWHIGVRVKETQKLVAFISAIPVTLGVRGKQVPSVEINFLCVHKQLRSKRLTPVLIKEITRRVNKCDIWHALYTAGIVLPAPVSTCRYTHRPLNWKKLYEVDFTGLPDGHTEEDMIAENALPAKTKTAGLRKLKKEDIDQVFELFKRYQSRFELIQIFTKEEFEHNFIGEESLPLDKQVIFSYVVEQPDGKITDFFSFYSLPFTILNNTKYKDLGIGYLYYYATDADFQFKDRFDPKATKALKTRLCELIYDACILAKNANMDVFNALTSQDNTLFLDDLKFGPGDGFLNFYLFNYRAKPITGGLNPDNSNDIKRRSNVGVVML
notes: S2A lies in the removed part
- Km [2]: 0.36 µM
- Km [3]: 1.2 µM
- Km [4]: 0.96 µM
- Km [5]: 0.38 µM

B2: E. coli-derived S. cerevisiae NMT (Total E. coli NMT) (Saccharomyces cerevisiae S288C; S2A) (protein)
chain: MAEEDKAKKLENLLKLLQLNNDDTSKFTQEQKKAMKDHKFWRTQPVKDFDEKVVEEGPIDKPKTPEDISDKPLPLLSSFEWCSIDVDNKKQLEDVFVLLNENYVEDRDAGFRFNYTKEFFNWALKSPGWKKDWHIGVRVKETQKLVAFISAIPVTLGVRGKQVPSVEINFLCVHKQLRSKRLTPVLIKEITRRVNKCDIWHALYTAGIVLPAPVSTCRYTHRPLNWKKLYEVDFTGLPDGHTEEDMIAENALPAKTKTAGLRKLKKEDIDQVFELFKRYQSRFELIQIFTKEEFEHNFIGEESLPLDKQVIFSYVVEQPDGKITDFFSFYSLPFTILNNTKYKDLGIGYLYYYATDADFQFKDRFDPKATKALKTRLCELIYDACILAKNANMDVFNALTSQDNTLFLDDLKFGPGDGFLNFYLFNYRAKPITGGLNPDNSNDIKRRSNVGVVML
notes: intact 53 kDa (codon 2 Ser to Ala from cloning) plus 45 kDa truncated form
- Km [6]: 0.103 µM
- Km [7]: 65.8 µM

Reference: patent publication US5436138A, “Method for protein N-myristoylation” (Washington University, priority 1993, dated 1995)
